For one assay, the target named is Nbs1 1-335 (UniProt O60934). Briefly: co-expression, GST pull-down, anti-Flag blot. Conditions: reference: wild-type 200-600 fragment.
The target of a further assay is BRCA1 (UniProt P38398). Briefly: co-immunoprecipitation, HA-CtIP and Myc-BRCA1. The settings on record: reference: wild type; sites S327.
Assay [1] addresses T1, GST-CtIP-His (purified CtIP-WT) (human, UniProt Q99708 1-897, phosphorylated by CDKs when expressed in insect cells (sites in Table S2)).
T1 construct: CtIP, human; also called GST-CtIP WT
The experiment in a line: pull-down; purified Nbs1(1–335) or Nbs1(1–335)-RRHK incubated with purified CtIP-WT or CtIP-12A-CDK coupled to glutathione agarose beads; Western blot with anti-His and anti-GST. The settings on record: both partners purified.

T1 sequence (Q99708 whole entry): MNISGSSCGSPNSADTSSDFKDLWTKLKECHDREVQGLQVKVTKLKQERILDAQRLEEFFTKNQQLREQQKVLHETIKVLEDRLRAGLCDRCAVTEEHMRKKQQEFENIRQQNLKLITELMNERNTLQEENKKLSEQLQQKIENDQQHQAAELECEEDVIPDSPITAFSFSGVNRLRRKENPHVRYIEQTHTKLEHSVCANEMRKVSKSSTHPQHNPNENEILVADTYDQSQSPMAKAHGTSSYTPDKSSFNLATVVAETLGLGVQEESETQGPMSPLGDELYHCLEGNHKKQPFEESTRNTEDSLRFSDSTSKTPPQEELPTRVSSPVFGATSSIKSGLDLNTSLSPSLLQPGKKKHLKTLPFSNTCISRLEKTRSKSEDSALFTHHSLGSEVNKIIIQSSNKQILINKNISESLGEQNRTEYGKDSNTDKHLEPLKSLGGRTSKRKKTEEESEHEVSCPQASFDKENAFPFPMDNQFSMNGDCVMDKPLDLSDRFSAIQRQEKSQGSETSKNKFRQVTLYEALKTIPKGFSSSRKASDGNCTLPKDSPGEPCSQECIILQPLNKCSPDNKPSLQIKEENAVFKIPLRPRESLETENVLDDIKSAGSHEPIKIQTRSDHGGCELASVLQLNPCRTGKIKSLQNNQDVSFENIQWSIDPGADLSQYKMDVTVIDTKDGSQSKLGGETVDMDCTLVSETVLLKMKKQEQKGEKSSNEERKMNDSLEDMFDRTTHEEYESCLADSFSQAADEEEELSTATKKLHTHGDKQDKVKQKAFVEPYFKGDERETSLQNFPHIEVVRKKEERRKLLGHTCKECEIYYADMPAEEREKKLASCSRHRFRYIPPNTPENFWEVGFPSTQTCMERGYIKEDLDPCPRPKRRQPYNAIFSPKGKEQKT

On to “CtIP 200-600 (from UniProt Q99708) 5A-CDK”, for which the “binding against the reference” value with Nbs1 1-335 (sites S233,T245,S276,T315,S347) is listed as “lost”. Regarding “CtIP 200-600 (from UniProt Q99708) S233A/T245A/S276A (printed S233A/S245A/S276A)”, the “binding against the reference” value with Nbs1 1-335 (sites S233,T245,S276) is reported as “weaker”. As for “CtIP 200-600 (from UniProt Q99708) T245A/S276A/S347A”, in the assay with Nbs1 1-335 (sites T245,S276,S347), the “binding against the reference” value is “weaker”.

For the molecule “CtIP 200-600 (from UniProt Q99708) T315A/S347A”, the “binding against the reference” value with Nbs1 1-335 (sites T315,S347) is “weaker”. With CtIP (from UniProt Q99708) S327A, in the assay with BRCA1, the “binding against the reference” value was “weaker”.

B1: Purified Nbs1(1–335) (domain or fragment, human, UniProt O60934 1-335, looked up)
chain: MWKLLPAAGPAGGEPYRLLTGVEYVVGRKNCAILIENDQSISRNHAVLTANFSVTNLSQTDEIPVLTLKDNSKYGTFVNEEKMQNGFSRTLKSGDGITFGVFGSKFRIEYEPLVACSSCLDVSGKTALNQAILQLGGFTVNNWTEECTHLVMVSVKVTIKTICALICGRPIVKPEYFTEFLKAVESKKQPPQIESFYPPLDEPSIGSKNVDLSGRQERKQIFKGKTFIFLNAKQHKKLSSAVVFGGGEARLITEENEEEHNFFLAPGTCVVDTGITNSQTLIPDCQKKWIQSIMDMLQRQGLRPIPEAEIGLAVIFMTTKNYCDPQGHPSTGLKT
notes: also called Nbs1-WT-N; source: Sf9 insect cells, purified (Ni-NTA column followed by MonoQ column); not shown: His, C-terminal, kept
On to B1, for which the binding result in assay [1] was “binds”.

The values are drawn from publication PMC3585124, “The Interaction of CtIP and Nbs1 Connects CDK and ATM to Regulate HR–Mediated Double-Strand Break Repair” (PLoS Genetics, 2013).
